The RNAGym collection of RNA variant scans (doi:10.1073/pnas.2313332121)

B1: TPR t1 (parent)
chain: GACCAAUCUGCCCUCAGAGCUCGAGAACAUCUUCGGAUGCAGAGGAGGCAGGCUUCGGUGGCGCGAUAGCGCCAACGUCCUCAACCUCCAAUGCAUCCCACCACAUGAUGAUGCCUGAAGAGCCUUGGUUUUUUG

Variants of: B1
Test: polymerase ribozyme fitness, log enrichment relative to wild type (log ratio); higher = more active; in vitro selection for triplet polymerase activity
Procedure, shortened: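 Fitness compares each genotype's enrichment to that of the wild type on a logarithmic scale, averaging replicates with inverse-variance weights. The logarithm is base 2. Enrichment came from Illumina sequencing of input and output libraries after one triplicate round of in vitro selection, which included frozen incubation at −7 °C, of PCR-built, transcribed mutant libraries of each subunit of a heterodimeric triplet polymerase ribozyme. Only genotypes with ≥10 input reads and ≥1 read per output were kept.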

Variant | polymerase ribozyme fitness (log ratio)
A2U G120U | -1.32
A2U G120C | -1.67
C3A A6C A46G C49G G69C C104U | -3.86
A2U C8G C101G | -2.67
C3U A37C C53G U55C | -1.11
C3U G60A C82A U106A G120A | 0.775
C3U C11U U87A C124U | 0.336
C3U C22G G39U C49G C70U G110U | -5.2
A2G C12G G17A U54C C88U A91U C101U A105U C114G U131A | -5.89
A2U C15A A16C G17A C72A C85G A118U C124G | -2.91
A2C G117C U131C U133C | -4.66
C3A U81G C115U | -6.22
C3G C64U G69A | -2.41
A2U C115A | -2.22
C3U C13A A29U G44C C124G U132C | -3.39
C3G C73G | -3.19
C3U G122A | -1.01
C3G U7G C88G C114U | -2.56
A2U C13U C85G U131G | -3.98
A2G A27U C73G C79G C104U | -6.8
C3G U112A | -0.0942

Variant | polymerase ribozyme fitness (log ratio)
C3U A26U C49U A118U | -3.26
C3G G120A | -1.23
C3U G113C | -2.47
A2G C4U G35A G77A C98U C101A | -6.32
C3U U7A A37C C98U | -2.2
C3A G45U C72G U87C | -3.73
C3U C56A A68G G120C | -3.32
A2U C8A A41U C101U U130G | -1.84
A2U C3G C4U C72U G77A U92G A118U C123G G128A | -3.1
A2G U59C C85U C124A | 0.474
C3U C49A G120A | -0.42
C3U G120C | 0.705
A2C U55C C82G A91C A105U C123G | -6.66
A2G A16C C89A G120C U133A G135C | -2.39
C3U A18U C82A G120C | -1.8
C3G C82A | -2.49
A2C U7A C49U U96A C101A U125G | -3.99
C3A A43U | -2.69
C3G C22A | -4.35
C3A U9A G52U C88G A91C G127U | -1.59
C3A U55G | -1.43

Variant | polymerase ribozyme fitness (log ratio)
A2U C11U C22A A41C G71U C82A C88U A121G | -6.23
C3U C53G | -0.501
A2C G71A U112G | -2.44
C3U C79A G113U | -5.54
C3U C62G U106A G113A | -4.93
A2U A37U G48A C53U G60A C85A | -3.47
A2C G44A G113A | -4.5
A2U G17A C28U A43U G61C G110A | -6.04
A2U C4A C56G U78C C79G C101U | -3.31
A2U G93U | -2.62
C3A U9A C28U C53A C94A | -4.65
A2U A5U A27G C53G U87G | -4.56
C3U C4A G51C C53A G71U A103G C114U | -5.71
C3U U7G C20U U21G C73U G110U C124G | -4.5
C3A A29U G63A C82A A91C C114U G128U | -3.24
C3U G39A U54G G120C | 0.423
A2U A37C G44A C53A G63C C124A | -3.55
A2G C4U C79A C115A | -5.2
C3A C72U G93U A111G | -3.35
A2U G71U | -2.05
C3A C89U | -1.82

Variant | polymerase ribozyme fitness (log ratio)
A2U A46G C73U U81C | -3.83
A2G C11G U38G C82G | -4.28
C3U C20G | -3.47
A2G G51U C114U | -6.82
C3U G23C G60A U106A A111C | -6.81
A2C G10U A37C C64U U112C | -1.73
C3A U9A C12A A83G | -2.57
A2G A50U U81A | 0.17
C3U G39U C73A C98U | -2.51
C3A G117C | -3.87
A2U A37U C72A U78A C124G | -0.247
C3U G69A | -2.67
A2U U38A G63A C88U | -4.16
C3U C13G A90U A121C C124A | -0.103
A2U U87G | -2.24
C3G A83C | -2.39
C3U C56A G69A C72A C101U U112A C123G | -5.58
C3G U112A C115A | -2.03
C3A G120U | -0.479
A2C G69C A121U | -0.282
C3U G69U C98A G113A | -1.77
